# From the supplement of paper PMC10724198
# ± gives the standard deviation of the averaged measurements.
# Test system: Saccharomyces cerevisiae
# Assay: protein stability index of tFT-peptide fusion (C-terminal peptide) (PSI (0-1 scale)); higher = more stable (slower turnover)
# Conditions: genetic background: wild type; temperature: 30 C
# 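Note: PSI is a weighted mean of sequencing reads over stability bins, variants kept only with over 10 reads, mCherry proximal and sfGFP distal, peptide attached via GGGS linker.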
row,Sequence,protein stability index
1,SGGGGWVVGGVA,0.663 ± 0.011
2,RTKENYKRRKEK,0.702 ± 0.12
3,SMMMIISQRKTR,0.787 ± 0.1
4,HSAVRMGTRGRG,0.715 ± 0.049
5,VRGRGRSWRRVK,0.758 ± 0.18
6,SGTSDDWWPGVA,0.785 ± 0.038
7,EVCFVWSLGEVL,0.623 ± 0.019
8,KNRKSPSMNSKE,0.716 ± 0.017
9,MFDSHQWVCIKD,0.785 ± 0.1
10,PGLGISHARCCF,0.695 ± 0.016
11,PPVLPPPAPLPP,0.6548 ± 0.0047
12,PWFIGGSLGESG,0.699 ± 0.027
13,SQGSCCTALDVA,0.675 ± 0.046
14,AVNEHVPILFLL,0.62 ± 0.073
15,FSPASCPILPPL,0.672 ± 0.014
16,PPSPPDSPPPAS,0.665 ± 0.014
17,PLSPPLPPPLSL,0.681 ± 0.031
18,GGVVEGVSLAQC,0.727 ± 0.049
19,CLPPSPASFHPL,0.65 ± 0.056
20,REIVLQTSAAYN,0.613 ± 0.037
21,WCWCSLVVDGTA,0.5707 ± 0.0047
22,PPSPPPPLPLLP,0.661 ± 0.077
23,TFLPAPSPTSPP,0.724 ± 0.032
24,KKEQIKINIKGK,0.693 ± 0.03
25,RMIPYDLIRLTR,0.705 ± 0.012
26,LVSRLAGAVLGR,0.632 ± 0.014

row,Sequence,protein stability index
1,GLMGWGLFCGFG,0.7759 ± 0.0043
2,KKKKKSKIEKKD,0.725 ± 0.077
3,VIDHALWCYVGG,0.605 ± 0.0087
4,RKINKQKRTKEE,0.6449 ± 0.0023
5,GAKHDSSRQSLR,0.746 ± 0.086
6,FIQFGYVSSVIQ,0.722 ± 0.031
7,VDLGAGVCSAVC,0.6195 ± 0.0056
8,LSPPLPARPAAS,0.687 ± 0.034
9,SRIGNADAAQGM,0.732 ± 0.042
10,SICLLSAALPPP,0.708 ± 0.029
11,FPPLSHLPPGLY,0.758 ± 0.075
12,HWRCASLTLSAG,0.8 ± 0.02
13,APVLPKPSPFSF,0.629 ± 0.01
14,EKYSSHPMDTRQ,0.653 ± 0.013
15,DVKNMVWKTIEL,0.6746 ± 0.0065
16,LFLPLPRCHALP,0.7037 ± 0.0066
17,ASVRPCSCSGRQ,0.715 ± 0.069
18,PPPPFPLPSPSL,0.655 ± 0.022
19,CVAFLAGIVSFL,0.525 ± 0.019
20,GWEVGRGRLGVV,0.696 ± 0.095
21,ATHPPPPPLPPI,0.648 ± 0.068
22,RNKRKKNKDKIK,0.677 ± 0.051
23,VVPDVGVVTSPA,0.649 ± 0.072
24,SFPVPFPRFFPP,0.714 ± 0.03
25,GGGGGLVGGCVA,0.696 ± 0.081
26,SIFSFCSNTWFL,0.747 ± 0.029

row,Sequence,protein stability index
1,EKRKEKKKRGKE,0.797 ± 0.16
2,EKYASINSSKPP,0.671 ± 0.068
3,RWGCHFWVGFVG,0.544 ± 0.046
4,FTPLPHAHPPPP,0.664 ± 0.0034
5,YVEVIDERYPCV,0.757 ± 0.021
6,PSGVKILFELKP,0.645 ± 0.03
7,TILAGSSRGTLR,0.659 ± 0.061
8,DIHSSQVPSMFA,0.68 ± 0.076
9,GALARFEGAVRV,0.702 ± 0.012
10,TFPPLLFVCSLL,0.594 ± 0.0078
11,LWPVSMTSSFFF,0.661 ± 0.048
12,GLVGRGGAVGEW,0.68596 ± 0.00038
13,CEERGLLPTQYS,0.6686 ± 0.006
14,PPPPSLAPRSAL,0.724 ± 0.048
15,GCPRSCYIPSSV,0.72 ± 0.011
16,SRPRLPPSPCLF,0.631 ± 0.032
17,SHTSPSTPPPSP,0.681 ± 0.0085
18,GGDGAVSRRWGR,0.685 ± 0.015
19,VGWGGGESLGWV,0.694 ± 0.13
20,HAIPAPDLYHTQ,0.651 ± 0.09
21,GYAGAIMAGYDP,0.656 ± 0.033
22,CSRGVVLFLGFL,0.586 ± 0.016
23,ITSALRYLSAVG,0.656 ± 0.022
24,LLHPSPTPPCPP,0.696 ± 0.06
25,PPPPGPGSAPPP,0.59 ± 0.065
26,RVWERGGGGDGC,0.645 ± 0.049

row,Sequence,protein stability index
1,NSQAIKSTARQK,0.707 ± 0.00054
2,TLPPPSLPPSSS,0.652 ± 0.071
3,PHPPPSLLPSAP,0.7612 ± 0.0037
4,GLTSRIAAGRQR,0.696 ± 0.022
5,LSRGPYRPHVNP,0.69 ± 0.051
6,TLFPPLCVFSFC,0.587 ± 0.03
7,VFLVLFDRLLPL,0.669 ± 0.0073
8,LPRPYRPASTCT,0.656 ± 0.016
9,THTEWVQFIRWY,0.733 ± 0.073
10,SPLPPRSPPRPA,0.699 ± 0.01
11,YTGVCEWRANVH,0.689 ± 0.0096
12,WSLLLLPEFSLR,0.705 ± 0.012
13,VGRTNHSRVFRT,0.627 ± 0.035
14,KTHKKRYRKGNT,0.725 ± 0.12
15,AIRGGPGGDKEP,0.682 ± 0.024
16,VFGSYFFIPFFL,0.498 ± 0.016
17,KNIERKKNTKIR,0.714 ± 0.017
18,GWVFLRVARFGL,0.684 ± 0.045
19,PASPPSPLLLSL,0.74 ± 0.066
20,FVYHGLVGKRMV,0.666 ± 0.051
21,GAMLAGRHGWGL,0.715 ± 0.04
22,GLSSNVTSSTLS,0.685 ± 0.015
23,GAAVSGGRARCP,0.712 ± 0.064
24,RAGRVRAPGRWP,0.728 ± 0.017
25,NGQSELHDHYME,0.651 ± 0.013
26,APPPPSPPSLAS,0.736 ± 0.074

row,Sequence,protein stability index
1,GLRIRFSNSYVG,0.688 ± 0.057
2,PPPFPPPPLFPL,0.714 ± 0.032
3,PLPPPPLLPFVL,0.774 ± 0.085
4,IDKGENTGKHRL,0.673 ± 0.027
5,PFPPPTDQTAHR,0.728 ± 0.025
6,LPAPPPPPRPLA,0.683 ± 0.021
7,LVSPSSPLLPPP,0.685 ± 0.082
8,SPRHAGSSAWRP,0.674 ± 0.064
9,PHPTPSLPHSSP,0.827 ± 0.043
10,SGSPVFLDPPLS,0.698 ± 0.015
11,TVKYVVSTRAFI,0.627 ± 0.044
12,CPNLWSRFASRC,0.716 ± 0.0085
13,ADDTFSERIHSK,0.7 ± 0.093
14,RVLSWSGRQSWC,0.668 ± 0.045
15,ISHAGSVPDRSV,0.701 ± 0.04
16,RRRPPPLPPPHL,0.63 ± 0.015
17,LSARPFPPLMYS,0.6968 ± 0.0025
18,KKGKGKTETIKT,0.695 ± 0.03
19,VVARGGGGGSGA,0.583 ± 0.016
20,TVFGLLHALLYS,0.724 ± 0.037
21,LSLFSLSPSFSR,0.718 ± 0.013
22,CPFLSISSNCSM,0.667 ± 0.027
23,SFGPQFLAPVFS,0.706 ± 0.031
24,FSTLLVSPLQAS,0.641 ± 0.022
25,GKRVNLNITSHS,0.683 ± 0.024
26,TSAASPVRYGGS,0.65 ± 0.014

row,Sequence,protein stability index
1,PPPPALWPPPSP,0.735 ± 0.013
2,SLPLPPPSPPHV,0.676 ± 0.018
3,VLGGVWAWWVGF,0.663 ± 0.022
4,KRKKKKEQTKKK,0.752 ± 0.11
5,RDLYHPFQSHQS,0.705 ± 0.019
6,GYMFLSFLKLCW,0.599 ± 0.021
7,LGGPGAVWGRGR,0.697 ± 0.0084
8,GCPSGRDIQSSH,0.643 ± 0.01
9,IALPPPGILDSA,0.683 ± 0.16
10,PGQRSRGPPGRA,0.737 ± 0.076
11,WSWEVTSSVCRI,0.732 ± 0.058
12,PIDHCFPPIPRR,0.737 ± 0.035
13,IPDSSPIVPHPK,0.6722 ± 0.0065
14,RPASSYPPHSPT,0.767 ± 0.037
15,LPPPLPPPGPPF,0.715 ± 0.013
16,TKRQTIEIIKKK,0.809 ± 0.11
17,DNEMLQICRSRW,0.774 ± 0.029
18,VHTCVSYTNCMD,0.703 ± 0.026
19,PFFSSRLFTLSL,0.731 ± 0.015
20,DMYLPSSSHPPP,0.712 ± 0.021
21,ERANMSRGNQTE,0.687 ± 0.025
22,TVRFYHGSFRAP,0.727 ± 0.062
23,RHSLPSPPAFCL,0.723 ± 0.0092
24,GATLETPIGCGR,0.666 ± 0.0074
25,FLCRLILFSTPP,0.602 ± 0.021
26,LPSTLLLPLASP,0.712 ± 0.018

row,Sequence,protein stability index
1,LPPAAPPPPIPA,0.599 ± 0.0079
2,AHYGSNNNGLVF,0.695 ± 0.042
3,APLSLPPPPSPH,0.696 ± 0.033
4,VFRHIGVIYNNF,0.65 ± 0.013
5,CSRTSKKMSIGG,0.613 ± 0.019
6,KNQLKKPINKSK,0.734 ± 0.13
7,KFMKEITIDGLT,0.709 ± 0.055
8,AGLVADGYWLRR,0.6892 ± 0.005
9,SFLSLYRLTPGR,0.655 ± 0.048
10,RQKIRRKSSTKN,0.704 ± 0.0074
11,SSPFCPLFQNPL,0.757 ± 0.056
12,ASRKRKVAQESR,0.688 ± 0.03
13,QSNPAERASSRL,0.692 ± 0.022
14,DALGRSNGPPRV,0.673 ± 0.027
15,LPPGSTPDSPTL,0.706 ± 0.028
16,HHQVVPDVSLVS,0.6585 ± 0.0013
17,RLGVWVWGFTPG,0.742 ± 0.082
18,HPYTPLLSRLSP,0.708 ± 0.0077
19,YGSQAYAIDSKP,0.6369 ± 0.0009
20,RRGAVVLVSPAL,0.677 ± 0.021
21,RDGYMVKVYGVK,0.707 ± 0.1
22,GVARGFGVVVPA,0.6427 ± 0.0044
23,PKAMRPKLVVFR,0.682 ± 0.024
24,PTPPRRPLSFSP,0.653 ± 0.057
25,LRLTCRPWGLFF,0.6377 ± 0.0051
26,LHCPRICYSPHL,0.715 ± 0.059

row,Sequence,protein stability index
1,RAGPPPPPSITL,0.83 ± 0.085
2,GCLIAGGIDCPP,0.66 ± 0.072
3,GSTLWGRAWGAR,0.724 ± 0.02
4,LQPATGPQRVIS,0.665 ± 0.03
5,RLGWTTSEELWC,0.657 ± 0.029
6,DVDWVLTLGCLG,0.647 ± 0.034
7,EKKKRRASREDS,0.6744 ± 0.0039
8,RPLLPPTFATSF,0.751 ± 0.038
9,HPPSPPPPAPSC,0.738 ± 0.02
10,AGAGVQAYGRGR,0.681 ± 0.015
11,RLPLAPFSVTTH,0.699 ± 0.1
12,VVAVRLPNVRHY,0.655 ± 0.018
13,FLGRFLTGALWV,0.758 ± 0.12
14,TLDKGRFSPAHL,0.754 ± 0.049
15,EGGGWGVGSEVG,0.694 ± 0.035
16,GGGGGGGGSLRV,0.663 ± 0.038
17,LTRRCPVGAWGN,0.692 ± 0.012
18,MTRGSAPELWLL,0.655 ± 0.029
19,KDNMQFLHLYAS,0.707 ± 0.075
20,AFWYACMSLHRS,0.728 ± 0.07
